According to patent US20230159601A1 (SEOUL NATIONAL UNIVERSITY HOSPITAL, published 2023):

Target: T1, recombinant human proprotein convertase subtilisin/kexin type-9 (rhPCSK9) (human, UniProt Q8NBP7 31-692, limits assumed)
T1 construct: Elsewhere it is called His-rhPCSK9; also called recombinant hPCSK9; recombinant human PCSK9
Test: surface plasmon resonance, direct binding analysis between rhPCSK9 and CAP1 (FIG. 1E)

T1 sequence (Q8NBP7 31-692 limits assumed): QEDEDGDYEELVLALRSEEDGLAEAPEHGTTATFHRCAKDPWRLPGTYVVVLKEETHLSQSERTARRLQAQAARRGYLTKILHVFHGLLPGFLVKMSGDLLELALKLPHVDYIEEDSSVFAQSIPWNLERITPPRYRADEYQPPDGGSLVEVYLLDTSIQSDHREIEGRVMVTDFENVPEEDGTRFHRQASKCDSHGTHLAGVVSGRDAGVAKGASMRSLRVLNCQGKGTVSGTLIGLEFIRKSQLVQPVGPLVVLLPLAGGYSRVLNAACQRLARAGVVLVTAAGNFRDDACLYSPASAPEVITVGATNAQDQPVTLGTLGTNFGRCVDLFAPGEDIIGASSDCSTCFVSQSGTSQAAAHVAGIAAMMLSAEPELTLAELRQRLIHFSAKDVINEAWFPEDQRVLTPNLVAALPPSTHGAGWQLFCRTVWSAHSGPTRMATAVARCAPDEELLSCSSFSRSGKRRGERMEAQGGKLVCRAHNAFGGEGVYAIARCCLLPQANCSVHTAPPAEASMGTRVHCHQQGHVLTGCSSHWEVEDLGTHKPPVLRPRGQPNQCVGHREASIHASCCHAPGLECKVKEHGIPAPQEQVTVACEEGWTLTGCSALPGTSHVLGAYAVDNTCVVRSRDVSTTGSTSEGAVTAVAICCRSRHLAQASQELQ

- Kd: 1010 nM
B1: human adenylyl cyclase-associated protein 1 (CAP1), wild type (other)
chain: MADMQNLVERLERAVGRLEAVSHTSDMHRGYADSPSKAGAAPYVQAFDSLLAGPVAEYLKISKEIGGDVQKHAEMVHTGLKLERALLVTASQCQQPAENKLSDLLAPISEQIKEVITFREKNRGSKLFNHLSAVSESIQALGWVAMAPKPGPYVKEMNDAAMFYTNRVLKEYKDVDKKHVDWVKAYLSIWTELQAYIKEFHTTGLAWSKTGPVAKELSGLPSGPSAGSGPPPPPPGPPPPPVSTSSGSDESASRSALFAQINQGESITHALKHVSDDMKTHKNPALKAQSGPVRSGPKPFSAPKPQTSPSPKRATKKEPAVLELEGKKWRVENQENVSNLVIEDTELKQVAYIYKCVNTTLQIKGKINSITVDNCKKLGLVFDDVVGIVEIINSKDVKVQVMGKVPTISINKTDGCHAYLSKNSLDCEIVSAKSSEMNVLIPTEGGDFNEFPVPEQFKTLWNGQKLVTTVTEIAG
notes: also called hCAP1; wtCAP1
